Measured values from patent US8975044B2, “Polynucleotides encoding for frizzled-binding agents and uses thereof” (OncoMed Pharmaceuticals, Inc., priority 2008, dated 2015).

Tested on: OMP-C28 colon tumor xenografts
Assay: OMP-C28 colon tumor xenograft growth
Type: in vivo, NOD/SCID mice
Details: 18R5 10 mg/kg IP twice weekly, single agent; p=0.02
Procedure: In another embodiment anti-FZD antibodies were analyzed for their ability to reduce the growth of OMP-C28 colon tumor xenografts. Dissociated human OMP-C28 cells (10,000 per animal) were injected subcutaneously into 6-8 week old male NOD/SCID mice. Tumor growth was monitored weekly and tumor measurements were initiated once tumors were palpable. On day 24 mice with average tumor volume of 129 mm^3 were randomized into 4 groups of 10 animals each. Animals were injected with either control antibody, or 18R5 IgG antibody (10 mg/kg), or irinotecan (7.5 mg/kg) or combination of both 18R5 and irinotecan. Administration of the antibodies and irinotecan was performed via injection into the intra-peritoneal cavity, twice weekly. Tumors were measured twice a week and tumor volume was determined using the formula ½(a×b^2); where a=length, and b=breadth. Data are expressed as mean and mean±S.E.M. Group means were compared using Student's two-tailed, unpaired t test.

B1: 18R5: human anti-FZD antibody; VH SEQ ID NO:10 (as 18R8), VL SEQ ID NO:14; binds FZD1, 2, 5, 7, 8 (antibody, V domains shown)
VH: EVQLVESGGGLVQPGGSLRLSCAASGFTFSHYTLSWVRQAPGKGLEWVSVISGDGSYTYYADSVKGRFTISSDNSKNTLYLQMNSLRAEDTAVYYCARNFIKYVFANWGQGTLVTVSS
VL: DIELTQPPSVSVAPGQTARISCSGDNIGSFYVHWYQQKPGQAPVLVIYDKSNRPSGIPERFSGSNSGNTATLTISGTQAEDEADYYCQSYANTLSLVFGGGTKLTVLG
modifications: 18R5/18R8 heavy chain variable region (VH); 18R5 light chain variable region (VL)
reduction in tumor growth: 40%
